Laboratory results from the supplement of paper PMC9112550, “Optimization of the antimicrobial peptide Bac7 by deep mutational scanning” (BMC Biology, 2022).
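Also: peptides expressed intracellularly from a pBAD plasmid library in pooled LB shake-flask culture, induced with 0.3% L-arabinose, DNA abundance read by NGS, three biological replicates, DESeq2 with apeglm shrinkage.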

What follows are sequences tested on Escherichia coli TOP10 (assay: shrunken log2 fold change of peptide-encoding DNA abundance (4.5 h post-induction vs induction); higher = less antimicrobial activity (less host growth inhibition)). Settings: time post-induction: 4.5 h; library: site-saturation at positions 5, 18, 19, 20.
For RRIRSRPPRLPRPRPRPDLFPRP, the “shrunken log2 fold change” value was 0.256. With RRIRQRPPRLPRPRPRPCLTPRP the “shrunken log2 fold change” value was 0.0158. RRIRPRPPRLPRPRPRPVTAPRP was tested, and the “shrunken log2 fold change” value was 0.385. For RRIRCRPPRLPRPRPRPGETPRP, the “shrunken log2 fold change” value was 0.238. In the case of RRIRMRPPRLPRPRPRPSLAPRP, the “shrunken log2 fold change” value is reported as 0.566. RRIRYRPPRLPRPRPRPKPHPRP was tested, and the “shrunken log2 fold change” value was -0.1. With RRIRVRPPRLPRPRPRPHYDPRP the “shrunken log2 fold change” value was -0.379. For RRIRIRPPRLPRPRPRPMDFPRP, the “shrunken log2 fold change” value was 0.00128. For RRIRPRPPRLPRPRPRPDSFPRP, the “shrunken log2 fold change” value was -0.0889. RRIRFRPPRLPRPRPRPNQHPRP was tested, and the “shrunken log2 fold change” value was -0.275. RRIRTRPPRLPRPRPRPFECPRP was tested, and the “shrunken log2 fold change” value was -0.143. With RRIRNRPPRLPRPRPRPNYPPRP the “shrunken log2 fold change” value was -0.0819. In the case of RRIRCRPPRLPRPRPRPKEAPRP, the “shrunken log2 fold change” value is reported as 0.085. With RRIRERPPRLPRPRPRPSHWPRP the “shrunken log2 fold change” value was -0.292. RRIRTRPPRLPRPRPRPLKPPRP was tested, and the “shrunken log2 fold change” value was -0.126. For RRIRWRPPRLPRPRPRPHDCPRP, the “shrunken log2 fold change” value was -0.00141. In the case of RRIRVRPPRLPRPRPRPQYCPRP, the “shrunken log2 fold change” value is reported as -0.095. For RRIRCRPPRLPRPRPRPLSQPRP, the “shrunken log2 fold change” value was 0.0133. With RRIRTRPPRLPRPRPRPRWYPRP the “shrunken log2 fold change” value was -0.288. For RRIRRRPPRLPRPRPRPPWKPRP, the “shrunken log2 fold change” value was 0.0487. In the case of RRIRKRPPRLPRPRPRPPMNPRP, the “shrunken log2 fold change” value is reported as 0.123. With RRIRERPPRLPRPRPRPLVDPRP the “shrunken log2 fold change” value was -0.135. For RRIRFRPPRLPRPRPRPIGEPRP, the “shrunken log2 fold change” value was 0.0336. For RRIRYRPPRLPRPRPRPWVGPRP, the “shrunken log2 fold change” value was -0.352. In the case of RRIRERPPRLPRPRPRPFNPPRP, the “shrunken log2 fold change” value is reported as -0.442. For RRIRRRPPRLPRPRPRPLHIPRP, the “shrunken log2 fold change” value was 0.212. With RRIRARPPRLPRPRPRPHDSPRP the “shrunken log2 fold change” value was 0.037. In the case of RRIRPRPPRLPRPRPRPRLKPRP, the “shrunken log2 fold change” value is reported as 0.344. In the case of RRIRWRPPRLPRPRPRPYIEPRP, the “shrunken log2 fold change” value is reported as -0.629. With RRIRPRPPRLPRPRPRPNPHPRP the “shrunken log2 fold change” value was 0.0866. For RRIRERPPRLPRPRPRPWAIPRP, the “shrunken log2 fold change” value was -0.0826. In the case of RRIRARPPRLPRPRPRPRHTPRP, the “shrunken log2 fold change” value is reported as 0.419. With RRIRCRPPRLPRPRPRPICVPRP the “shrunken log2 fold change” value was 0.0832. With RRIRARPPRLPRPRPRPLTTPRP the “shrunken log2 fold change” value was 0.463. RRIRWRPPRLPRPRPRPLLYPRP was tested, and the “shrunken log2 fold change” value was 0.0998. RRIRSRPPRLPRPRPRPQDGPRP was tested, and the “shrunken log2 fold change” value was -0.0336. In the case of RRIRCRPPRLPRPRPRPTARPRP, the “shrunken log2 fold change” value is reported as 0.105. For RRIRYRPPRLPRPRPRPGILPRP, the “shrunken log2 fold change” value was -0.0404. With RRIRHRPPRLPRPRPRPIAEPRP the “shrunken log2 fold change” value was -0.103. For RRIRGRPPRLPRPRPRPNMYPRP, the “shrunken log2 fold change” value was -0.185. For RRIRQRPPRLPRPRPRPQIIPRP, the “shrunken log2 fold change” value was -0.0763. In the case of RRIRHRPPRLPRPRPRPLHWPRP, the “shrunken log2 fold change” value is reported as 0.0266. For RRIRNRPPRLPRPRPRPSHAPRP, the “shrunken log2 fold change” value was -0.859. With RRIRMRPPRLPRPRPRPPALPRP the “shrunken log2 fold change” value was 1.13. In the case of RRIRCRPPRLPRPRPRPPRHPRP, the “shrunken log2 fold change” value is reported as 0.646. For RRIRLRPPRLPRPRPRPWSEPRP, the “shrunken log2 fold change” value was 0.0878. RRIRCRPPRLPRPRPRPYSIPRP was tested, and the “shrunken log2 fold change” value was -0.608. With RRIRSRPPRLPRPRPRPWASPRP the “shrunken log2 fold change” value was -0.114. With RRIRQRPPRLPRPRPRPYYNPRP the “shrunken log2 fold change” value was -0.392. For RRIRLRPPRLPRPRPRPMDRPRP, the “shrunken log2 fold change” value was -0.0152. With RRIRIRPPRLPRPRPRPPEPPRP the “shrunken log2 fold change” value was 0.105. For RRIRHRPPRLPRPRPRPYMYPRP, the “shrunken log2 fold change” value was -1.14. With RRIRKRPPRLPRPRPRPEMIPRP the “shrunken log2 fold change” value was 0.0131. RRIRTRPPRLPRPRPRPDFLPRP was tested, and the “shrunken log2 fold change” value was -0.169. RRIRGRPPRLPRPRPRPFHWPRP was tested, and the “shrunken log2 fold change” value was 0.134. For RRIRFRPPRLPRPRPRPQAHPRP, the “shrunken log2 fold change” value was -0.454. In the case of RRIRARPPRLPRPRPRPFGRPRP, the “shrunken log2 fold change” value is reported as 0.547. For RRIRFRPPRLPRPRPRPMKEPRP, the “shrunken log2 fold change” value was -0.187. For RRIRGRPPRLPRPRPRPNRQPRP, the “shrunken log2 fold change” value was 0.167. RRIRDRPPRLPRPRPRPNAWPRP was tested, and the “shrunken log2 fold change” value was -0.0496. In the case of RRIRARPPRLPRPRPRPITKPRP, the “shrunken log2 fold change” value is reported as -0.0507. With RRIRWRPPRLPRPRPRPTYLPRP the “shrunken log2 fold change” value was 0.0592. With RRIRCRPPRLPRPRPRPTTEPRP the “shrunken log2 fold change” value was 0.419. With RRIRYRPPRLPRPRPRPPTNPRP the “shrunken log2 fold change” value was 0.0849. In the case of RRIRWRPPRLPRPRPRPMRWPRP, the “shrunken log2 fold change” value is reported as 0.648. RRIRCRPPRLPRPRPRPYHTPRP was tested, and the “shrunken log2 fold change” value was -0.887. With RRIRYRPPRLPRPRPRPPTAPRP the “shrunken log2 fold change” value was -0.111. In the case of RRIRKRPPRLPRPRPRPYDEPRP, the “shrunken log2 fold change” value is reported as -0.293. With RRIRLRPPRLPRPRPRPIHYPRP the “shrunken log2 fold change” value was -0.186. For RRIRNRPPRLPRPRPRPCGCPRP, the “shrunken log2 fold change” value was 0.0239. In the case of RRIRDRPPRLPRPRPRPPLVPRP, the “shrunken log2 fold change” value is reported as 0.194. For RRIRQRPPRLPRPRPRPPHEPRP, the “shrunken log2 fold change” value was 0.559. In the case of RRIRCRPPRLPRPRPRPDQHPRP, the “shrunken log2 fold change” value is reported as 0.0432. RRIRQRPPRLPRPRPRPAWDPRP was tested, and the “shrunken log2 fold change” value was 1.54. For RRIRLRPPRLPRPRPRPADWPRP, the “shrunken log2 fold change” value was 0.196. RRIRQRPPRLPRPRPRPITDPRP was tested, and the “shrunken log2 fold change” value was 0.00271. In the case of RRIRTRPPRLPRPRPRPRGQPRP, the “shrunken log2 fold change” value is reported as 0.411. RRIRDRPPRLPRPRPRPSCMPRP was tested, and the “shrunken log2 fold change” value was 0.0312. In the case of RRIRFRPPRLPRPRPRPNMCPRP, the “shrunken log2 fold change” value is reported as -0.54. RRIRPRPPRLPRPRPRPCEMPRP was tested, and the “shrunken log2 fold change” value was 2.11. In the case of RRIRLRPPRLPRPRPRPCCQPRP, the “shrunken log2 fold change” value is reported as -0.194. In the case of RRIRKRPPRLPRPRPRPNLWPRP, the “shrunken log2 fold change” value is reported as 0.492. For RRIRIRPPRLPRPRPRPHYDPRP, the “shrunken log2 fold change” value was -0.801. For RRIRSRPPRLPRPRPRPKNCPRP, the “shrunken log2 fold change” value was -0.149. With RRIRARPPRLPRPRPRPGVGPRP the “shrunken log2 fold change” value was 0.805. With RRIRHRPPRLPRPRPRPFWCPRP the “shrunken log2 fold change” value was -0.3. In the case of RRIRRRPPRLPRPRPRPTKCPRP, the “shrunken log2 fold change” value is reported as 0.114. In the case of RRIRHRPPRLPRPRPRPSMTPRP, the “shrunken log2 fold change” value is reported as 0.0628. RRIRIRPPRLPRPRPRPEMMPRP was tested, and the “shrunken log2 fold change” value was 0.0516. In the case of RRIRPRPPRLPRPRPRPWLYPRP, the “shrunken log2 fold change” value is reported as -0.0765. With RRIRTRPPRLPRPRPRPNGYPRP the “shrunken log2 fold change” value was -0.12. In the case of RRIRRRPPRLPRPRPRPQDVPRP, the “shrunken log2 fold change” value is reported as -0.108. In the case of RRIRERPPRLPRPRPRPGSGPRP, the “shrunken log2 fold change” value is reported as 0.101. With RRIRGRPPRLPRPRPRPRVAPRP the “shrunken log2 fold change” value was 0.816. RRIRRRPPRLPRPRPRPEMHPRP was tested, and the “shrunken log2 fold change” value was 0.705. For RRIRHRPPRLPRPRPRPIFGPRP, the “shrunken log2 fold change” value was -0.0177. RRIRNRPPRLPRPRPRPIIYPRP was tested, and the “shrunken log2 fold change” value was -1.06. For RRIRARPPRLPRPRPRPENAPRP, the “shrunken log2 fold change” value was 0.687. With RRIRFRPPRLPRPRPRPIQEPRP the “shrunken log2 fold change” value was -0.541. For RRIRDRPPRLPRPRPRPAHYPRP, the “shrunken log2 fold change” value was 0.0963. RRIRMRPPRLPRPRPRPLMHPRP was tested, and the “shrunken log2 fold change” value was 0.341. For RRIRPRPPRLPRPRPRPQDCPRP, the “shrunken log2 fold change” value was 0.104. For RRIRERPPRLPRPRPRPERPPRP, the “shrunken log2 fold change” value was -0.0522. With RRIRKRPPRLPRPRPRPGCFPRP the “shrunken log2 fold change” value was 0.421. In the case of RRIRCRPPRLPRPRPRPAMLPRP, the “shrunken log2 fold change” value is reported as 0.0443. In the case of RRIRCRPPRLPRPRPRPNYAPRP, the “shrunken log2 fold change” value is reported as -0.0784. With RRIRPRPPRLPRPRPRPKYMPRP the “shrunken log2 fold change” value was 1.72. For RRIRWRPPRLPRPRPRPYYGPRP, the “shrunken log2 fold change” value was -0.0686. For RRIRTRPPRLPRPRPRPKMDPRP, the “shrunken log2 fold change” value was 0.0289. For RRIRGRPPRLPRPRPRPGWEPRP, the “shrunken log2 fold change” value was 0.506. RRIRARPPRLPRPRPRPICIPRP was tested, and the “shrunken log2 fold change” value was 0.227. RRIRTRPPRLPRPRPRPTPYPRP was tested, and the “shrunken log2 fold change” value was -0.298. For RRIRFRPPRLPRPRPRPGNAPRP, the “shrunken log2 fold change” value was 0.0998. For RRIRHRPPRLPRPRPRPMWTPRP, the “shrunken log2 fold change” value was -0.126. With RRIRDRPPRLPRPRPRPHPSPRP the “shrunken log2 fold change” value was 0.0703. In the case of RRIRWRPPRLPRPRPRPESHPRP, the “shrunken log2 fold change” value is reported as 0.189. With RRIRSRPPRLPRPRPRPLMWPRP the “shrunken log2 fold change” value was 0.169. In the case of RRIRPRPPRLPRPRPRPLLYPRP, the “shrunken log2 fold change” value is reported as -0.348. With RRIRYRPPRLPRPRPRPMPSPRP the “shrunken log2 fold change” value was 0.0101. With RRIRMRPPRLPRPRPRPAEEPRP the “shrunken log2 fold change” value was 1.55. With RRIRYRPPRLPRPRPRPHRAPRP the “shrunken log2 fold change” value was -0.213. With RRIRERPPRLPRPRPRPSRTPRP the “shrunken log2 fold change” value was -0.111. With RRIRYRPPRLPRPRPRPDDAPRP the “shrunken log2 fold change” value was -0.199. RRIRFRPPRLPRPRPRPIWVPRP was tested, and the “shrunken log2 fold change” value was -0.107. For RRIRWRPPRLPRPRPRPTCAPRP, the “shrunken log2 fold change” value was 0.868.
